Reference: PMC10011822 (The Journal of Biological Chemistry, 2023)
Changes are numbered by the printed parent chain. Names may count otherwise.

T1: SufS cysteine desulfurase, wild type (E. coli, UniProt P77444 1-406)
T1 construct: SufS cysteine desulfurase, E. coli, UniProt P77444; gene in pET-21(a); PLP-dependent enzyme; as purified it carries the pyridoxal-5'-phosphate cofactor (internal aldimine); also called WT SufS; wt SufS; source: E. coli BL21(DE3)Δsuf, pET21, purified (Q-XL, Phenyl HP, Superdex 200)
T1 sequence: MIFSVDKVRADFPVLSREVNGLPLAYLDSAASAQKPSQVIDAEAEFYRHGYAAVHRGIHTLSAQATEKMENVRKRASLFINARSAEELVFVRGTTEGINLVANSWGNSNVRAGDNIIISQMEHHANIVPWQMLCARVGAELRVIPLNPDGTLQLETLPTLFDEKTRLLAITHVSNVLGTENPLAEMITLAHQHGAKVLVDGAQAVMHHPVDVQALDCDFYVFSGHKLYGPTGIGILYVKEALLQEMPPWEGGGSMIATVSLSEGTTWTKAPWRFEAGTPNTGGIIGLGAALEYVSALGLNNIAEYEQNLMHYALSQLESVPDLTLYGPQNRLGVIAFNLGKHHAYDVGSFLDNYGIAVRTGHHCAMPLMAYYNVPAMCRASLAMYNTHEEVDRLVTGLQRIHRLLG

T2: D346R SufS (E. coli, UniProt P77444 1-406, D346R)
T2 construct: SufS cysteine desulfurase, E. coli, UniProt P77444, with D346R; gene in pET-21(a); No tag named; nothing is said of the oligomeric state of this variant; source: E. coli BL21(DE3)Δsuf, pET21, purified (Q-XL, Phenyl HP, Superdex 200)
T2 sequence: T1 sequence with D346R

B1: BODIPY-labelled C51A/E107C SufE (natural protein, E. coli)
chain: MALLPDKEKLLRNFLRCANWEEKYLYIIELGQRLPELRDEDRSPQNSIQGAQSQVWIVMRQNAQGIIELQGDSDAAIVKGLIAVVFILYDQMTPQDIVNFDVRPWFCKMALTQHLTPSRSQGLEAMIRAIRAKAAALS
modifications: BODIPY FL maleimide on the cysteine at 107 (E107C); labelling efficiency between 60 and 80%
notes: SufE transpersulfurase, E. coli, UniProt P76194, with C51A and E107C; gene in pET-21(a); No tag named; also called labeled C51A/E107C SufE; BODPIY-C51A/E107C SufE; source: E. coli BL21(DE3), pET21, purified (Q-XL, Superdex 200), labelled with BODIPY FL maleimide
B2: N99A SufS (enzyme, E. coli)
chain: T1 sequence with N99A
notes: SufS cysteine desulfurase, E. coli, UniProt P77444, with N99A; gene in pET-21(a); Carries the PLP cofactor; No tag named; Dimer in the crystal structure; also called SufS N99A; source: E. coli BL21(DE3)Δsuf, pET21, purified (Q-XL, Phenyl HP, Superdex 200)
B3: N99D SufS (enzyme, E. coli)
chain: T1 sequence with N99D
notes: SufS cysteine desulfurase, E. coli, UniProt P77444, with N99D; gene in pET-21(a); Carries the PLP cofactor; No tag named; Dimer in the crystal structure; residues 248 to 268 have no electron density; also called SufS N99D; source: E. coli BL21(DE3)Δsuf, pET21, purified (Q-XL, Phenyl HP, Superdex 200)

Columns and labels:
SufE (Escherichia coli) = SufE (Escherichia coli) (UniProt P76194); details: cited from earlier work
SufS = SufS (Escherichia coli, UniProt P77444); details: no SufE, 500 μM cysteine, with and without 2 mM TCEP, pH 8.0, 25 °C
[1] = target: T1, SufS cysteine desulfurase, wild type; experiment: fluorescence polarisation; as without cysteine, but in the presence of 500 μM cysteine: SufS titrated against 100 nM BODIPY-labelled C51A/E107C SufE; 50 mM MOPS pH 8, 150 mM NaCl, 0.1 mg/ml BSA; room temperature; details: both partners purified
N99A SufS [2] = target: B2; experiment: as above; details: both partners purified
N99D SufS [3] = target: B3; experiment: as above; details: both partners purified
D346R SufS = target: T2, D346R SufS; experiment: fluorescence polarisation; SufS (0.2-40 μM) titrated against 100 nM BODIPY-labelled C51A/E107C SufE; no cysteine; 50 mM MOPS pH 8, 150 mM NaCl, 0.1 mg/ml BSA; 30 min at room temperature; black 96-well plates; fit to a single-affinity site (Equation 3); details: both partners purified
[4] = target: T1, SufS cysteine desulfurase, wild type; experiment: as above; details: both partners purified
N99A SufS [5] = target: B2; experiment: as above; details: both partners purified
N99D SufS [6] = target: B3; experiment: as above; details: both partners purified
[7] = target: the molecule itself; experiment: crystal structure; sitting drop vapor diffusion at 20 °C, 4 to 4.5 M NaCl, 100 mM MES pH 6.5; SufS variant alone, dimer

Molecule: SufS (from UniProt P77444)
Kd (SufE (Escherichia coli)): 0.5 µM

Molecule: N[C@@H](CS)C(=O)O [cysteine]
alanine production plate-reader assay; UV-visible cysteine-PLP intermediates (SufS): WT SufS is also capable of producing alanine

Molecule: B1
Kd [1]: 0.6 ± 0.2 µM | Kd (N99A SufS [2]): 3.1 ± 0.6 µM | Kd (N99D SufS [3]): 3.3 ± 0.7 µM | Kd (D346R SufS): > 40 µM | Kd [4]: 5.2 µM | Kd (N99A SufS [5]): 6.2 ± 1.8 µM | Kd (N99D SufS [6]): 9.9 ± 3 µM

Molecule: B2
binding result [7]: binds

Molecule: B3
binding result [7]: binds
